# Data taken from the RNAGym collection of RNA variant scans (doi:10.7554/elife.80360).
# B1: Twister Ribozyme (parent)
# chain: AACACUGCCAAUGCCGGUCCCAAGCCCGGAUAAAAGUGGAGGGGGCGG
# Variants of: B1
# Assay: self-cleavage, relative activity (ratio to wild type); higher = more cleavage; co-transcriptional
row,Variant,self-cleavage
1,AACACUGCCAAUGCCAGUCCCAAGCCCGGAUAAAAGUGCAGGGGGCGG [G16A G39C],0.141
2,AACACUGCCAAUGCCGCUCCCAAGCCCGGAUAAAAGUGGAGGGAGCGG [G17C G44A],0.109
3,AACACUGCCAAUGCCGGUCCCAAACACGGAUAAAAGUGGAGGGGGCGG [G24A C26A],0.123
4,AACACUGCCAAUGCUGUUCCCAAGCCCGGAUAAAAGUGGAGGGGGCGG [C15U G17U],0.204
5,ACCACUGCCAAUGCAGGUCCCAAGCCCGGAUAAAAGUGGAGGGGGCGG [A2C C15A],0.051
6,AACACUGCCAGUGCCGGUCCCAAGCCCGGAUUAAAGUGGAGGGGGCGG [A11G A32U],0.841
7,AUCACUGCCAAUGCCGGUCCCAAGCCCGGAUAAAAGUGGAGGGCGCGG [A2U G44C],0.439
8,AACACUGCCAAUGCCGGUCCGAAGCCCGAAUAAAAGUGGAGGGGGCGG [C21G G29A],0.0338
9,AACACUGCCAAUGGCGGUCCCAAGCCCGGUUAAAAGUGGAGGGGGCGG [C14G A30U],0.146
10,AACACUGCCAAUGCCGGUACCAAGCCCGGAUAAAAGUGUAGGGGGCGG [C19A G39U],0.124
11,AACACUGCCAAUGCCGGUCCCAUGCCCGGAUAAAAGUGGAGGGGGCGC [A23U G48C],0.48
12,AACACUGCCAAUGCCGGUCCGAAGCCCGGAUAAAAGUGGAGAGGGCGG [C21G G42A],0.0891
13,AACACUUCCAAGGCCGGUCCCAAGCCCGGAUAAAAGUGGAGGGGGCGG [G7U U12G],0.208
14,AACAAUGGCAAUGCCGGUCCCAAGCCCGGAUAAAAGUGGAGGGGGCGG [C5A C8G],0.106
15,AACACUGCCAAUGCCGGACCCAAGCCUGGAUAAAAGUGGAGGGGGCGG [U18A C27U],0.385
16,AACACUACCAAUGCCGGUCCCAAGCCCGGGUAAAAGUGGAGGGGGCGG [G7A A30G],0.405
17,AACACUGCCAAUGCCGGUCCCUAGCCCGGAUAUAAGUGGAGGGGGCGG [A22U A33U],0.698
18,AGCACUGCCAAUGCCGGUCCCUAGCCCGGAUAAAAGUGGAGGGGGCGG [A2G A22U],0.133
19,AACACAGCCAAUGCCGGUCCCAAUCCCGGAUAAAAGUGGAGGGGGCGG [U6A G24U],0.0898
20,AACACUGCCAAUGCCGGUCCCAAGCCCGGAAAAAAUUGGAGGGGGCGG [U31A G36U],0.292
21,AACACUGCCAAUGCCCCUCCCAAGCCCGGAUAAAAGUGGAGGGGGCGG [G16C G17C],0.0907
22,AACACUGCCAAUGCCGGUCCCAAGCCCAGAUAAAAGUGGAGGGGGCGG [G28A],0.897
23,AACACUGCCAAUGCCGGUCCAAAGCCCGAAUAAAAGUGGAGGGGGCGG [C21A G29A],0.132
24,ACCACUGCCAAUGCCGGUCCCAAGCCCGGAUAAAAGUGGAGGGGGCAG [A2C G47A],0.0858
25,AACAUUGCCAAUGCCCGUCCCAAGCCCGGAUAAAAGUGGAGGGGGCGG [C5U G16C],0.159
26,AACACUGCCAAUGCCGUUCCCAAGCCCGGAUAAAAGUCGAGGGGGCGG [G17U G38C],0.203
27,UACACUGCCAAUGCCGGUCCCAAGCCCGGACAAAAGUGGAGGGGGCGG [A1U U31C],0.0703

row,Variant,self-cleavage
1,AACACUGCCAAUGCCGGUCCCGAGCCCGGAUCAAAGUGGAGGGGGCGG [A22G A32C],0.35
2,AACACUGCCAAUGCCGGUCCCAAUCCCGGAUUAAAGUGGAGGGGGCGG [G24U A32U],0.0649
3,GACACUGCCAAUGCCGGACCCAAGCCCGGAUAAAAGUGGAGGGGGCGG [A1G U18A],0.509
4,AACACUGCCAAUGCCGGUCCCAAGGCCGGUUAAAAGUGGAGGGGGCGG [C25G A30U],0.31
5,AACACUGCCAAUGGCGGUCCCAAGCCCGGAUAAAAGUGGAGGGGGCAG [C14G G47A],0.0923
6,AACACUGCCAAUGCCGGUCCCAAGCCUGGAUACAAGUGGAGGGGGCGG [C27U A33C],0.764
7,AACACUGCCAAUGCCGGUCCCAAGCCCCGAUAAAAGUGGAGAGGGCGG [G28C G42A],0.185
8,AACACUGCCAAUGCCGGUCUCAAGCCCGGAUAAAAGUGGAGGGGGCGG [C20U],1.01
9,AACACUGCCAAUGCCGGUCCCAAGCCCGGAUCAAAGUGGAGGGGGUGG [A32C C46U],0.863
10,AACACUACCAAUGCCGGUCCCAAGACCGGAUAAAAGUGGAGGGGGCGG [G7A C25A],0.0809
11,AACACUGCCAAUGCCGGUCCCAAGCCCCGAUCAAAGUGGAGGGGGCGG [G28C A32C],0.728
12,AACACUGCCAAUGCCGGUCCCAAGCCCGUAUAAAAGUCGAGGGGGCGG [G29U G38C],0.778
13,AACACUGCCAAUGCCGGUCCCAAACCCGGAUCAAAGUGGAGGGGGCGG [G24A A32C],0.0703
14,AACACUGUCAAUGCCGGUCCCAAGCCCGGCUAAAAGUGGAGGGGGCGG [C8U A30C],0.15
15,AUCACUGCCAAUGCCCGUCCCAAGCCCGGAUAAAAGUGGAGGGGGCGG [A2U G16C],0.13
16,AACACUGCCAAUGCUGGUCCCAAGCCCGGAUAAAAGUGGAGGGUGCGG [C15U G44U],0.988
17,AACACUGCCAAUGCCGGACCCAAGCCCGGAUAAAAAUGGAGGGGGCGG [U18A G36A],0.111
18,ACCACUGCCAAUGCCGCUCCCAAGCCCGGAUAAAAGUGGAGGGGGCGG [A2C G17C],0.0357
19,AACACUGGCAAUGCCGGUCCCAAGCUCGGAUAAAAGUGGAGGGGGCGG [C8G C26U],0.0555
20,AGCACUGCCAAUGCCGGUCCCAAGCCCGGAUAUAAGUGGAGGGGGCGG [A2G A33U],0.401
21,AACACUGCCAAUGCCGGUCCCAAGCCCGGAUGAAAGUGGAGGGGGCGU [A32G G48U],1.1
22,AACACUGCCAAUGCCGGUCCCAAGCCCGUAUAAAAGUGGAGCGGGCGG [G29U G42C],0.388
23,AACACUGCCAAUGCCGGUCCCAAGCCCUGAUAAACGUGGAGGGGGCGG [G28U A35C],0.888
24,AAGACUGCCAAUGCCGGUCCCAAGCCCGGAUAAAAGUGGAGGGGACGG [C3G G45A],0.479
25,AACACUGCCAAUGCCGGUUCCAAGCCCGGAUAAAAGUGGAGCGGGCGG [C19U G42C],0.221
26,AACACUGCCAAUGCCCGUCCCAAGCCCGGAUAAAAGUGGAGCGGGCGG [G16C G42C],0.121
27,AACACUGCCAAUGCCGGUCCCAAGUCCGGAUAAAAGUGGAUGGGGCGG [C25U G41U],0.198
